Legend:
[1] = target: T1, rhLRP1 cluster II (Homo sapiens, UniProt Q07954); assay: Solid phase binding assay of RAP peptides; conditions: for Kd: calcium-dependent binding, EDTA-subtracted, read-out: Kd / binding affinity
T1 construct: rhLRP1 cluster II (aa 786-1165, C-terminal Fc, 1 μg); purchased R&D Systems; host or cells: NS0
T1 sequence (Q07954 786-1165): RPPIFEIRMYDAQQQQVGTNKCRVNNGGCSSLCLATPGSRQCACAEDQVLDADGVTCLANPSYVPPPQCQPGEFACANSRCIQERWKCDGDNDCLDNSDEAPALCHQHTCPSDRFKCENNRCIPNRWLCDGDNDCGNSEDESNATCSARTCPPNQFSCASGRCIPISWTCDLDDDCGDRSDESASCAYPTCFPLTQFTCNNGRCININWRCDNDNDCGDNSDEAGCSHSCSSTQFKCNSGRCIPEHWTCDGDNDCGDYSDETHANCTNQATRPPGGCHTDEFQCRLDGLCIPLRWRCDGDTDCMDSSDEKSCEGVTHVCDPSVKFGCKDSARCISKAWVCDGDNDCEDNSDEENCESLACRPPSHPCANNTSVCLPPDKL
Description: Solid phase binding assays were carried out as follows. Recombinant murine VLDLR ectodomain (aa 1-798, C-terminal hexahistidine, 1 μg) or rhLRP1 cluster II (aa 786-1165, C-terminal Fc, 1 μg) were bound to Nunc Maxisorp™ 96-well plates in TBS pH 8 supplemented with 5 mM CaCl2 (TBSC) overnight at 4° C. Wells were washed with TBSC and then blocked with TBSC containing 2% BSA. Peptides were then incubated with the immobilized receptor at a range of concentrations for 2 hours in the above blocking buffer supplemented with 0.05% Tween-20 at room temperature. Identical binding reactions were done in the presence of 50 mM EDTA to provide a measure of non-specific binding. Control wells contained no added peptide. Additional controls established absence of cross-reactivity between antibodies and receptors. Wells were washed with TBSTC and bound peptides detected with streptavidin-HRP (Pierce) or polyclonal anti-RAP (1:1,000, Raptor Pharmaceutical). Binding of the anti-RAP polyclonal antibody to test peptides was qualitatively confirmed by Western blotting (data not shown). Excess streptavidin-HRP or primary antibody was removed and wells washed before incubation with the secondary antibody, when necessary, HRP-conjugated goat anti rabbit IgG (Bio-Rad). Color was developed using TMB reagents (BioRad). Absorption at 450 nm was measured with a microplate spectrophotometer (Molecular Devices). Absorption obtained in the presence of EDTA was subtracted from absorption obtained in the presence of calcium prior to analysis. Data were plotted and Kd values derived by non-linear regression with the assumption of single-site binding (GraphPad Prism).
The binding affinity of the peptides for LRP1 and VLDLR, another receptor in the LDLR family, was measured as follows. NS0-expressed and purified hrLRP1 or mVLDLR (R&D Systems) were use to coat wells in 96-well plates. Various dilutions of the test peptides were incubated with the immobilized receptors in the presence and absence of 50 mM EDTA in triplicate. Bound peptides were detected with streptavidin-HRP after extensive washing. Binding values measured in the presence of EDTA were subtracted from values measured in the absence of EDTA in order to determine calcium-dependent binding levels. Corrected values were plotted and fitted by non-linear regression with the assumption of a single-binding site using GraphPad Prism.

[2] = target: T2, MAT CR23 (Homo sapiens, UniProt Q9Y5Y6); assay: Solid phase binding assay; conditions: 80 nM ligand, FIG. 7
T2 construct: made in house; host or cells: E. coli BL21(DE3) CodonPlus-RIPL, pET30(+)a
T2 sequence (Q9Y5Y6 487-566): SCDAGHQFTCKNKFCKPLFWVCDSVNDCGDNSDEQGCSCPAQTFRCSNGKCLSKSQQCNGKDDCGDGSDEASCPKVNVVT
Description: (§1) All expression constructs were sequenced to verify insert sequences and the junctions with the expression vector. Each plasmid was then used to transform BL21(DE3) CodonPlus-RIPL™ cells (Stratagene). Expression of the CR proteins was induced in logarithmic growth-phase cells grown in LB supplemented with 34 μg/mL chloramphenicol, 12.5 μg/mL tetracycline and 15 μg/mL kanamycin by addition of 2 mM IPTG, followed by reduction in incubator temperature to 32° C. and incubation for 4 hours with agitation at […]. Cells were pelleted and resuspended, at 3.5% of the initial culture volume in 10 mM Tris-HCl pH 8, 100 mM NaH2PO4, 8M Urea. Resuspended cells were then frozen in liquid nitrogen, rapidly thawed to 37° C. and sonicated for 10 seconds at an amplitude setting of 60 using a Cole-Parmer CP-130 ultrasonic processor connected to a 3 mm probe. This procedure was repeated three times to effect complete lysis of the cells. Lysates were clarified by spinning twice at 10,000×g in a Sorvall RC-5 centrifuge for 20 minutes at 15° C. Ni-NTA columns (Qiagen Superflow™, 1.5 mL packed bed) were used to purify the CR proteins. Briefly, the resin was equilibrated with two column volumes of lysis buffer. The clarified lysate was then supplemented to 20 mM with imidazole and incubated with the equilibrated Ni-NTA resin overnight at 4° C. The flow-through was discarded. Columns were washed once with one column volume of lysis buffer and then three times with one column volume of TBS pH 8 supplemented with 20 mM imidazole. CR-loaded beads were then removed from the column and CR proteins eluted by incubating at room temperature for 30 minutes with one column volume of the same buffer containing 200 mM imidazole. This step was repeated once and the eluates pooled. Eluted CR protein solutions were then supplemented to 2 M urea, 10 mM CaCl2 and 5 mM DTT. Purified, denatured CR protein solutions were transferred to 3,500 MWCO Slide-A-Lyzer™ (Pierce) cassettes and sequentially dialyzed against a 200-fold excess of 50 mM Tris-HCl pH 8.5, 10 mM CaCl2, 1 mM reduced glutathione, 0.5 mM oxidized glutathione at room temperature overnight and then against TBS supplemented with 5 mM CaCl2 at 4° C. overnight. Protein concentrations were determined by Bradford assay and purity confirmed by SDS-PAGE with Coomassie Brilliant Blue staining.
(§2) Purified, refolded CR protein (1 μg) was bound to Nunc Maxisorp™ 96-well plates in TBS pH 8 supplemented with 5 mM CaCl2 (TBSC) overnight at 4° C. Wells were washed with TBSC and then blocked with TBSC containing 2% bovine serum albumin (BSA). RAP ligands were then incubated with the immobilized receptor at a range of concentrations for 2 hours in the above blocking buffer supplemented with 0.05% Tween-20 at room temperature. Control wells contained no added ligand. As an additional control, to determine whether the absence of calcium affected binding, 10 mM EGTA was included in the incubation medium for some samples. Wells were washed with TBSTC and bound ligands detected with polyclonal anti-RAP (BP41/42, 1:1,000, BioMarin). Excess primary antibody was removed and wells washed before incubation with the secondary antibody, HRP-conjugated goat anti rabbit IgG (Bio-Rad). After washing, TMB substrate solutions (Bio-Rad) were added to detect HRP. Color development was stopped with 1N HCl. Absorption at 450 nm was measured with a microplate spectrophotometer (Molecular Devices). Data were plotted and Kd values derived by non-linear regression with the assumption of single-site binding (GraphPad Prism).
(§3) From the large number of CR pairs with unique combinations of amino acids at A, C, A′ and C′ within the calcium-binding loop of each CR, CR pairs or triplets were selected to test their binding to RAP d3 (FIG. 2). An additional pair derived from the FDC-8D6 protein was tested, designated 8D6 CR12, having the sequence ([…]) (SEQ ID NO: 91). […]

[3] = target: T3, MAT CR12 (Homo sapiens, UniProt Q9Y5Y6); assay: Solid phase binding assay; conditions: 80 nM ligand, FIG. 7
T3 construct: termed MAT CR12 (ST14 CR12), amino acids 452-524; made in house; host or cells: E. coli BL21(DE3) CodonPlus-RIPL, pET30(+)a
T3 sequence (Q9Y5Y6 452-524): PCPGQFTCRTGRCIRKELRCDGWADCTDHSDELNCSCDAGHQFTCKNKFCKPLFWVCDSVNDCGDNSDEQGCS
Description: as §1, §2, §3

[4] = system: the other CR pairs; assay: Binding at 80 nM to fourteen CR pairs or triplets (FIG. 7); design: species or system human; conditions: 80 nM ligand
Description: RAP d3, MegaRAP1 d3, VRAP2 d3, MatRAP1 d3 and MatRAP2 d3 were each incubated at 80 nM concentrations with LRP1 CR3-5, LRP6 CR12, LRP6 CR23, LRP6 CR1-3, LRP2 CR89, LRP2 CR2728, LRP2 CR3031, LRP2 CR3435, LRP2 CR34-36, VLDLR CR78, VLDLR CR6-8, MAT CR12, MAT CR23 and MAT CR34. Samples were tested twice, in duplicate, and values combined. Means and standard deviations were then calculated. Blank values obtained from wells incubated in the absence of ligand were used to correct absorbance data.
Purified, refolded CR protein (1 μg) was bound to Nunc Maxisorp™ 96-well plates in TBS pH 8 supplemented with 5 mM CaCl2 (TBSC) overnight at 4° C. Wells were washed with TBSC and then blocked with TBSC containing 2% bovine serum albumin (BSA). RAP ligands were then incubated with the immobilized receptor at a range of concentrations for 2 hours in the above blocking buffer supplemented with 0.05% Tween-20 at room temperature. Control wells contained no added ligand. […] Wells were washed with TBSTC and bound ligands detected with polyclonal anti-RAP (BP41/42, 1:1,000, BioMarin). […] Absorption at 450 nm was measured with a microplate spectrophotometer (Molecular Devices). […]
The apparent dissociation constant for binding of VRAP1 d3 to VLDLR CR78 was determined to be 44±9 nM. […]

[5] = target: T2, MAT CR23; assay: Binding of sequentially-truncated MatRAP1 (FIG. 9)
Description: as §2, with “Prism). […]” for “Prism).”

B1: Heptide: cyclic RAP peptide, amino acids 246 to 313, E246C, L247G, G280A, L311A, S312C (SEQ ID NO: 103) (protein)
chain: CGKHFEAKIEKHNHYQKQLEIAHEKLRHAESVGDAERVSRSREKHALLEGRTKELGYTVKKHLQDACG
modifications: chains of the parent or of the whole protein
Kd [1]: ~3.5 nM

B2: MatRAP2: RAP d3 variant selected on MAT CR34: S232P, E239G, E246G, E251L, K256P, I266T, A267V, H268R, K270P, H273Y, R287H, H290Y, K298R, S312F (protein)
chain: LDRLRRVSHQGYSTEAEFEEPRVIDLWDLAQPANLTDKGLEAFREGLKHFLAKIEPHNHYQKQLETVREPLRYAESVGDGERVSRSHEKYALLEGRTRELGYTVKKHLQDLFGRISRAR
binding at 80 nM (in words) [2]: bound
binding at 80 nM (in words) [3]: bound
binding at 80 nM to the other CR pairs (in words) [4]: not appreciably

B3: mRAPcko: mRAPc with the mutations K256A and K270E (peptide)
peptide: GGSGGCGFREELKHFEAKIEAHNHYQKQLEIAHEELRHAESVGDGERVSRSREKHALLEGRTKELGYTVKKHLQDLSGGC
modifications: N-terminal biotin; intramolecular disulfide bond between C241 and C315 (otherwise identical to mRAPc)
notes: mRAPc with the mutations K256A and K270E
affinity (in words) [1]: no measurable affinity

B4: MatRAP1: RAP d3 variant selected on MAT CR23: E251G, K256R, K270W (protein)
chain: LDRLRRVSHQGYSTEAEFEEPRVIDLWDLAQSANLTDKELEAFREELKHFGAKIERHNHYQKQLEIAHEWLRHAESVGDGERVSRSREKHALLEGRTKELGYTVKKHLQDLSGRISRAR
binding at 80 nM (in words) [2]: bound
binding at 80 nM (in words) [3]: bound
binding at 80 nM to the other CR pairs (in words) [4]: not appreciably

B5: mRAP: linearized control of mRAPc, both cysteines substituted with serines (SEQ ID NO: 107) (peptide)
chain: SGFREELKHFEAKIEKHNHYQKQLEIAHEKLRHAESVGDGERVSRSREKHALLEGRTKELGYTVKKHLQDLSGGS
affinity (in words) [1]: no measurable affinity

B6: mRAp-8c: cyclic RAP peptide, amino acids 246 to 312, E246C, L247G, L311G, S312C (SEQ ID NO: 100) (protein)
chain: CGKHFEAKIEKHNHYQKQLEIAHEKLRHAESVGDGERVSRSREKHALLEGRTKELGYTVKKHLQDGC
modifications: chains of the parent or of the whole protein
Kd [1]: 4 to 6 nM

B7: MatRAP1 N-42: MatRAP1 with 42 amino acids removed from the N-terminus (protein)
chain: FREELKHFGAKIERHNHYQKQLEIAHEWLRHAESVGDGERVSRSREKHALLEGRTKELGYTVKKHLQDLSGRISRAR
increase in binding affinity over the full-length d3 variant [5]: 3 fold
